Test results from article PMC9087215.

What was measured:
[1] = biological target: Klebsiella pneumoniae PriA helicase (Klebsiella pneumoniae subsp. pneumoniae MGH 78578) (UniProt A6TGC5)
[2] = biological target: PaSSB(W54A) (Pseudomonas aeruginosa, UniProt P40947 1-165, W54A); assay: EMSA
[3] = biological target: PaSSB (Pseudomonas aeruginosa, UniProt P40947 1-165); assay: EMSA
[4] = biological target: PaSSB(W40A) (Pseudomonas aeruginosa, UniProt P40947 1-165, W40A); assay: EMSA
[5] = biological target: PaSSB(F60A) (Pseudomonas aeruginosa, UniProt P40947 1-165, F60A); assay: EMSA
[6] = biological target: PaSSB(W88A) (Pseudomonas aeruginosa, UniProt P40947 1-165, W88A); assay: EMSA

Molecule | ATPase activity of KpPriA with 10 μM KpSSBn-StSSBc, fold stimulation [1] | apparent K (half saturation) [2] | apparent K (half saturation) [3] | apparent K (half saturation) [4] | apparent K (half saturation) [5] | apparent K (half saturation) [6]
KpSSBn-StSSBc chimeric protein (from UniProt P0A2F6 92-176) | 14 fold |  |  |  |  | 
TTTTTTTTTTTTTTTTTTTTTTTTTTTTTTTTTTTTTTTTTTTTTTTTTT (ssDNA) [dT50] |  | 522 ± 26 nM | 355 ± 21 nM | 434 ± 19 nM | 569 ± 24 nM | 1230 ± 61 nM
